Source: paper PMC10514136, “Peptide-conjugated antimiRs improve myotonic dystrophy type 1 phenotypes by promoting endogenous MBNL1 expression” (Molecular Therapy. Nucleic Acids, 2023)
“And” between values parts separate entries of the source, which are not always exact repeats. Identical values can stand only once.

Legend:
Format in all cases: in vivo, mouse
Nfix exon 7 = experiment: Alternative splicing of Nfix exon 7 in muscle by RT-PCR (PSI, splice recovery); details: HSALR mice, individual mice
Method: (§1) Total RNA from murine gastrocnemius and quadriceps muscle was isolated using the miRNeasy Mini Kit (QIAGEN, Hilden, Germany) according to the manufacturer’s instructions. One microgram of RNA was digested with DNase I (Invitrogen, Carlsbad, CA) and reverse transcribed with SuperScript II (Invitrogen) using random hexanucleotides. For subsequent PCR reactions, 20 ng of cDNA was used with GoTaq polymerase (Promega). Specific primers were used to analyze the alternative splicing of Nfix, Atp2a1, and Clcn1 in mouse samples (both muscles). Gapdh levels established the endogenous reference levels using 0.2 ng of cDNA. PCR products were separated on a 2% agarose gel and quantified using ImageJ software (NIH, Bethesda, MD). PSR index was defined as value%SI minus X¯%DSI , divided by X¯%DSI minus X¯%HSI (SI, splicing inclusion of each sample; DSI, disease splicing inclusion; HSI, healthy splicing inclusion). Overall, PSR indicates the amount in both muscles analyzed. Primer sequences and exons analyzed are available in Cerro-Herreros et al.[20] In the case of off-targets, interleukins, and muscle regeneration marker Mstn-1, primers sequences are available in Table S5. We used 1 ng of mouse tissue cDNA as a template for multiplex qPCR using the QuantiFast Probe PCR Kit reagent. Commercial TaqMan probes (QIAGEN) were used for mouse (Mbnl1 and Mbnl2; FAM-labeled probes) and reference (GAPDH; MAX-labeled probe) genes. Results were normalized to Gapdh endogenous gene expression.
(§2) We used homozygous transgenic HSA^LR (line 20 b) mice,[90] which were kindly provided by Dr Thornton (Rochester, NY) and were housed and bred in our animal facility. Experimental groups were FVB as healthy control and HSA^LR treated with a scrambled ON (SC) and PBS as negative controls, and HSA^LR mice treated with all six experimental CPP-PMOs. The mice were randomly allocated to the different treatments as follows: in each cage, each mouse was ear-marked as it was taken out, and each mouse was then assigned to a different treatment. […] Mice were sacrificed 45 days after the first injection and the tissues of interest were frozen in liquid nitrogen for the molecular and histological assays. All the mice used in this study ranged from 5 to 5.5 months of age and all were males.

Atp2a1 exon 22 = experiment: Alternative splicing of Atp2a1 exon 22 in muscle by RT-PCR (PSI, splice recovery); details: HSALR mice, individual mice
Method: as §1, §2

HSALR mice [1] = experiment: Serum biochemistry profile; details: mouse, in vivo, iv, 9.2 mg/kg
Source text: (§3) Mouse handling and experimental procedures followed the European law regarding laboratory animal care and experimentation (2003/65/C.E.) and were approved by Conselleria de Agricultura, […] (reference no. A1539961490857). We used homozygous transgenic HSA^LR (line 20 b) mice,[90] which were kindly provided by Dr Thornton (Rochester, NY) and were housed and bred in our animal facility. […] The mice were randomly allocated to the different treatments as follows: in each cage, each mouse was ear-marked as it was taken out, and each mouse was then assigned to a different treatment. Animals were injected biweekly intravenously with 150 μL of 1× PBS vehicle (controls; […] Mice were sacrificed 45 days after the first injection and the tissues of interest were frozen in liquid nitrogen for the molecular and histological assays. All the mice used in this study ranged from 5 to 5.5 months of age and all were males. At 45 days post treatment, animals were sacrificed, and blood was collected by cardiac puncture exsanguination with K3-EDTA (Sarstedt, Nümbrecht, Germany). The samples were analyzed by Laboratorios Montoro Botella (Valencia, Spain).

HSALR mice [2] = experiment: White blood cell differential count; details: mouse, in vivo, iv, 9.2 mg/kg
Source text: as §3

[3] = ELISA determination of antimiR conjugate concentrations in tissues; details: HSALR mice, 9.2 mg/kg (mean) i.v. x3, day 45; hybridization ELISA, background subtracted; individual mice; 9.2 mg/kg
Method: Custom ELISA-based measurements of antimiR conjugate concentrations in brain, kidney, liver, heart, gastrocnemius, and quadriceps from treated HSA^LR mice were performed as described in Burki et al.,[89] using the following phosphorothioate probes: for miR-218 (5′ → 3′) [DIG] T∗T∗G∗T∗G∗C∗T∗TGATCTA∗A∗C∗C∗A∗T∗G∗T [BIO]; for miR-23b (5′ → 3′) [BIO] A∗T∗C∗A∗C∗A∗T∗TGCCAGG∗G∗A∗T∗T∗A∗C∗C [DiG] double-labeled with digoxigenin (DIG) and biotin (BIO). In all cases, a control sample was used to subtract the background (HSA^LR treated with PBS for 9b2 and 9b2-KC ONs; HSA^LR treated with Scramble for 6aKC ONs).
Mouse handling and experimental procedures followed the European law regarding laboratory animal care and experimentation (2003/65/C.E.) and were approved by Conselleria de Agricultura, Generalitat Valenciana (reference no. A1539961490857). We used homozygous transgenic HSA^LR (line 20 b) mice,[90] which were kindly provided by Dr Thornton (Rochester, NY) and were housed and bred in our animal facility. Experimental groups were FVB as healthy control and HSA^LR treated with a scrambled ON (SC) and PBS as negative controls, and HSA^LR mice treated with all six experimental CPP-PMOs. The mice were randomly allocated to the different treatments as follows: in each cage, each mouse was ear-marked as it was taken out, and each mouse was then assigned to a different treatment. Animals were injected biweekly intravenously with 150 μL of 1× PBS vehicle (controls; HSA^LR n = 7 and FVB n = 6) or 150 μL of a solution 1.875 mg/mL of the test CPP-PMOs corresponding to an average dose of 9.2 mg/kg (HSA^LR mice: SC n = 5, 9b2-218 n = 5, 9b2-23b n = 5, […] n = 5, […] n = 5, 6aKC-218 n = 5, and 6aKC-23b n = 5; see Table S6 for precise dosing). Mice were sacrificed 45 days after the first injection and the tissues of interest were frozen in liquid nitrogen for the molecular and histological assays. All the mice used in this study ranged from 5 to 5.5 months of age and all were males.

[4] = 9.2 mg/kg (mean) i.v. x3, day 45, gastrocnemius
[5] = 9.2 mg/kg (mean) i.v. x3, day 45, quadriceps

Substance: 9b2KC-218 (antisense ACAUGGUUAGAUCAAGCACAA; all phosphorodiamidate morpholino (PMO), T or U not given here; Pip9b2KC peptide conjugated)
- Percentage spliced-in (PSI) Nfix Gast (Nfix exon 7; [4]): 66.68% and 66.91% and 60.18% and 67.84% and 62.07%
- Percentage spliced-in (PSI) Nfix Quads (Nfix exon 7; [5]): 48.85% and 67.46% and 51.19% and 51.94% and 21.60%
- Percentage spliced-in (PSI) Atp2a1 Gast (Atp2a1 exon 22; [4]): 12.53% and 17.65% and 19.44% and 12.90% and 35.28%
- Percentage spliced-in (PSI) Atp2a1 Quads (Atp2a1 exon 22; [5]): 99.70% and 25.98% and 29.31% and 30.83% and 25.20%
- ALT (HSALR mice [1]): 47 ± 10 U/L
- Alkaline Phosphatase (HSALR mice [1]): 59,8 ± 6,300 U/L
- Amylase (HSALR mice [1]): 2593,4 ± 987,253 U/L
- Bile Acids (HSALR mice [1]): 55,20 ± 107,339 µmol/L
- Bilirubin (HSALR mice [1]): 0,112 ± 0,026 mg/dL
- Creatinine (HSALR mice [1]): 0,22 ± 0,084 mg/dL
- Lipase (HSALR mice [1]): 134,4 ± 227,401 U/L
- Urea (HSALR mice [1]): 41 ± 1,871 mg/dL
- Basophils (HSALR mice [2]): 0 ± 0%
- Eosinophils (HSALR mice [2]): 7,20 ± 2,28%
- Lymphocytes (HSALR mice [2]): 59,60 ± 3,130%
- Monocytes (HSALR mice [2]): 6,40 ± 2,074%
- Seg cells (HSALR mice [2]): 25,8 ± 4,324%
- CPP-PMO concentration (pM), Brain [3]: 6.68 pM and 4.47 pM and 1017.83 pM
- CPP-PMO concentration (pM), Gastrocnemius [3]: 726.85 pM and 1065.08 pM and 788.22 pM
- CPP-PMO concentration (pM), Heart [3]: 1724.69 pM and 184.66 pM and 108.67 pM
- CPP-PMO concentration (pM), Kidney [3]: 1320762.73 pM and 1455590.50 pM and 1409556.69 pM
- CPP-PMO concentration (pM), Liver [3]: 12456.78 pM and 13391.72 pM and 5588.09 pM
- CPP-PMO concentration (pM), Quadriceps [3]: 37.03 pM and 1605.97 pM and 358.44 pM
